Primed or numbered codes have the meaning given here. Where no end group is shown, it is not given here. [ ]: non-standard residue; d: D form. Fc(4) = non-antigen-binding fragment of an antibody (from proteolytic digestion of a whole antibody); Fc = immunoglobulin Fc domain fused to the peptide (peptibody); Fc(7) = Fc domain, peptide fused N- or C-terminal to it
T1: human Ang-2 (human, UniProt O15123)
T1 chain: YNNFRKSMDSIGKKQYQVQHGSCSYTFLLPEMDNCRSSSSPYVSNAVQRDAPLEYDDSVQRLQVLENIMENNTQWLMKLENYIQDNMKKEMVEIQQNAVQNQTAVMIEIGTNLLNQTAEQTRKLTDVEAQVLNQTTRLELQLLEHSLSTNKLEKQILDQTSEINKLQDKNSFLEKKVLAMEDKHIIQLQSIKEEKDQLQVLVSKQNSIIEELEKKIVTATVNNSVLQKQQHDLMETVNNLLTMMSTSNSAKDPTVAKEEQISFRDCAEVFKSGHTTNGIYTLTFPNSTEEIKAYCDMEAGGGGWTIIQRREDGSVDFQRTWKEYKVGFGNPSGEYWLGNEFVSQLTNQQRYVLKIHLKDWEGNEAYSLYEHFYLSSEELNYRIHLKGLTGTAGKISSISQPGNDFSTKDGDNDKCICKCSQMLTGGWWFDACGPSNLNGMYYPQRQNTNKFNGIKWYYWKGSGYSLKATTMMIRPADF


Target: T1, human Ang-2
Experiment: competition ELISA vs Tie-2

Row | Binder | IC50
1 | M[Fc(7)]GGGGGAQVVQVGMCQWDPWTCKHMRLQLE (not fully specified (bridges); cysteine pairing not given here) [Con4-19 (C)] | 5.76 nM
2 | M[Fc]GGGGGAQPMNQVECDWDPWTCEHMPRSLE (not fully specified; cysteine pairing not given here) [Con4-33 (C)] | 0.52 nM
3 | M[Fc(4)]GGGGGAQAATQEECEWDPWTCEHMPRSLE (not fully specified (bridges); cysteine pairing not given here) [Con4-C5 (C)] | 0.16 nM
4 | M[Fc(4)]GGGGGAQWPQTEGCQWDPWTCRLLHGWLE (not fully specified; cysteine pairing not given here) [Con4-6 (C)] | > 1000 nM
5 | M[Fc(7)]GGGGGAQQGMKMFCEWDPWTCAHIVYRLE (not fully specified (bridges); cysteine pairing not given here) [Con4-11 (C)] | 9.7 nM
6 | M[Fc(7)]GGGGGAQAWGQEGCDWDPWTCEHMLPMLE (not fully specified (bridges); cysteine pairing not given here) [Con4-28 (C)] | 0.3 nM
7 | M[Fc(7)]GGGGGAQWVNEVVCEWDPWTCNHWDTPLE (not fully specified (bridges); cysteine pairing not given here) [Con4-18 (C)] | 4.8 nM

Results, then the binder that gave them:

Row | IC50 | Binder
8 | > 1000 nM | M[Fc(4)]GGGGGAQATFARQCQWDPWTCALGGNWLE (not fully specified; cysteine pairing not given here) [Con4-5 (C)]
9 | > 1000 nM | M[Fc(4)]GGGGGAQLWQLAVCQWDPQTCDHMGALLE (not fully specified; cysteine pairing not given here) [Con4-7 (C)]
10 | > 1000 nM | M[Fc(7)]GGGGGAQTQLVSLCEWDPWTCRLLDGWLE (not fully specified (bridges); cysteine pairing not given here) [Con4-12 (C)]
11 | 0.22 nM | M[Fc(7)]GGGGGAQTWPQDKCEWDPWTCEHMGSTLE (not fully specified (bridges); cysteine pairing not given here) [Con4-27 (C)]
12 | 0.75 nM | M[Fc]GGGGGAQKSTQDDCDWDPWTCEHMVGPLE (not fully specified; cysteine pairing not given here) [Con4-32 (C)]
13 | 0.26 nM | M[Fc(4)]GGGGGAQNVRQEKCEWDPWTCEHMPVRLE (not fully specified; cysteine pairing not given here) [Con4-41 (C)]
14 | 15 nM | M[Fc(7)]GGGGGAQQWSWPPCEWDPWTCQTVWPSLE (not fully specified (bridges); cysteine pairing not given here) [Con4-15 (C)]
15 | 0.12 nM | M[Fc]GGGGGAQWYEQDACEWDPWTCEHMAEVLE (not fully specified; cysteine pairing not given here) [Con4-4 (C)]
16 | 0.18 nM | M[Fc]GGGGGAQVPRQKDCEWDPWTCEHMYVGLE (not fully specified; cysteine pairing not given here) [Con4-35 (C)]
